These are literature values, as cited in patent publication US20190360013.

The Kd is a measure of binding affinity in units of concentration.

In this data set the test system is mEcSSB (monomeric E. coli SSB) (Escherichia coli). Conditions: CITED; at ion concentrations optimal for TdT; footprint 65 nt.

Turning to ssDNA (65-nt footprint), the Kd was less than 1 pM.
